Source: article PMC9170038, “Crowdsourced RNA design discovers diverse, reversible, efficient, self-contained molecular switches”

B1: Eterna 12785 (Exclusion 4) (ssRNA)
RNA: CUCGUGUGAGGAUAUCUAUUCCACGGACGGGAGUCUUGAAGAGAGAAGGCACAUGAGGAUCACCCAUGUAAUAA
B2: Eterna 6436678 (Exclusion NG 2) (ssRNA)
RNA: AAAUUAAGAAGAGGAUAUUGACAUGAGGAUCACCCAUGUAUUUGGGAGUGUUUACUGAAUUCUUACGAGAAGGCUUACGAACUU
B3: Eterna 7619949 (Exclusion - Theophylline A) (ssRNA)
RNA: CGCAACCCUAAGGGAUUGUGGUUAUUAGAUACCAGUAUGAUGCAAUACCCUUGGCAGCUAAUACAUGAGGAUCACCCAUGUUGCG
B4: Eterna 10350 (Sensor for hsa-mir-208a) (ssRNA)
RNA: GCCCAUAGUAUAUGGAUACAAGCUUUUUGACAUGAGGAUCACCCAUGUACUCGUCUUAUGUGCAGUCCGUAGACUGC
B5: Eterna 7653720 (Same State - Theophylline B) (ssRNA)
RNA: UGUAUGUGAUUUGAUACCAGACCAGCUGGUGGUACCUGAGGAACACCCAGGUAGGUUUGGGUCCCUUGGCAGCAAAUCGCAUACU
B6: Eterna 7612252 (Exclusion - Arginine B) (ssRNA)
RNA: ACGUAAUGCAGAAGGAGCGUCUGAUUUUAACAUGAGGAUCACCCAUGUAAUAUUUAUGGUAGACAGGUAGGUCGCUGAAGUACGA
B7: Eterna 7748347 (Exclusion - Theophylline B) (ssRNA)
RNA: UUUUAGGUAUCUGAUACCAGAGAAAAUAUAUGUAGUGAUGUUAUAUACAAAAUAAUUAAGCUCCCUUGGCAGCAGUUUUAAUUUU
B8: Eterna 6445724 (Inverted Small Loop Same State NG 1) (ssRNA)
RNA: AACCUAAAACAGAAGGCCAGCUACAUGAGGAUCACCCAUGUCGAAUCAUGGAGGAUAUGUUGUAAUUUACUCGCAGAUGAGUGC
B9: Eterna 7769703 (Exclusion - Tryptophan A) (ssRNA)
RNA: AAACAUCACUGGGAGUGAUGUUCUCAGUGACGAGGACCGGUACGGCCGCCACUCGCGAGAGAACUAGUCUAGACUUGACUGCAUU
B10: Eterna 5859795 (Exclusion NG 3) (ssRNA)
RNA: ACAUGAGGAUCACCCAUGUAAUGAAGGGUACUAUACUAAACGUAGGAUAUCGAUGUAAGAUUGUACGAGAAGGACGAUUGCCUU
B11: Eterna 7641374 (Exclusion - Arginine A) (ssRNA)
RNA: GACAUGAGGAUCACCCAUGUUUUCUAUGAAGGAGCGUCGGAAAUGACAGGUAGGUCGCAUGGUAGGACUUGUAUCUUGUAUGUAG
B12: Eterna 7689816 (Same State - Arginine A) (ssRNA)
RNA: GCGAACAUUCGCAGUGAUGUUGCGACGGAAGGAGCGCGUGAAAACGCAGGUAGGUCGCCGACAUACUUAAUUUUACAGUGUUCGC
B13: Eterna 7684651 (Exclusion - Tryptophan A) (ssRNA)
RNA: AACUUAAUUUAUAAGCAGUGAUGUUGCUCACGAGGACCGGUACGGCCGCCACUCGAUCGGACUUAGGUCUUCAAUUAUUUCAUUA
B14: Eterna 13817 (Sensor v3, turn-off variant 2) (ssRNA)
RNA: UGUACUAUGCGUGCUGACAUGCGUAGUGCAGCAGGUGUAACAUGAGGAUCACCCAUGUCCUCAUUUGCUCGUCUUAA
B15: Eterna 7666983 (Same State - Theophylline A) (ssRNA)
RNA: AAUAACAUGAGGAUCACCCAUGUAAAAGAUACCAGGGUGAUGAUCCUCCCUUGGCAGCUUACAGCUGAUCAAUAAGAUCGGCUGA
B16: Eterna 6433253 (Small Loop Same State NG 3) (ssRNA)
RNA: CGUUUAUAUAUGGGUUUAUAUUAUGAGGAUAUCAAUAUUUAAUACAUGAGGAUCACCCAUGUUACUGAGAAGGCAUAAUUAACG
B17: Eterna 5982822 (Brourd's mod of Exclusion 4) (ssRNA)
RNA: GGAUCGAAUGUGAGGAUAUGCUGGUCCUUGGAUCAGCAGAAGGCACAUGAGGAUCACCCAUGUGGUAACGGUCC
B18: Eterna 6391458 (Small Loop Exclusion NG 1) (ssRNA)
RNA: ACAUGUUUUGUAGGAUAUCACUAGUUGUGUUAUAUAUUUGUUAUAAUGUAUUGAGAAGGACAUUUACAUGAGGAUCACCCAUGU
B19: Eterna 7691660 (Exclusion - Tryptophan B) (ssRNA)
RNA: AGAUUCGACACGGCCGCCACUUGUGGUGGAUUAUCCUAUGUAAGACAUGAGUGAUGUUCAUGUACAAGGACCGGGUGUUGAGUCU
B20: Eterna 7625640 (Exclusion - Theophylline B) (ssRNA)
RNA: UAUAUUGUGAUGGAUACCAGCAGAGAAAACGUUUAUCCUAACAUGAGGAUCACCCAUGUAUGCCCUUGGCAGCUGUUGUGGUAUA
B21: Eterna 6113948 (Same State NG 3) (ssRNA)
RNA: UGUUGUGAACAGAACAUGAGGAUCACCCAUGUGCACUCGUGUAAGGAUAUACAAUCGUAUGGAAAGUAGAAGGUACUAAUUAUG
B22: Eterna 7688897 (Exclusion - Tryptophan B) (ssRNA)
RNA: ACGAUCAUGUCGGCCGCCACUGAGAGUAGUGAUGUUACUUUUAUGUUUUAGUUAUAAUAUUUGAACAGGACCGGGACAUGUUCGU
B23: Eterna 6388885 (Inverted Exclusion NG 1) (ssRNA)
RNA: UUAUUUUUACAGAAGGUUUAAUAAUAUGUAUGAGAAGGAUAUGUAACAUGAGGAUCACCCAUGUUUUAUUUAUAUGAGGAUCAU
B24: Eterna 1103 (Exclusion - Theophylline A) (ssRNA)
RNA: AGUGACGAGUGAUGUUCGUGAACACUGGAUACCAGCAGUCUUAUCUGCCCUUGGCAGCCAACGGGAACCGAAUGUUAAGACCUGU
B25: Eterna 6036671 (Sensor, turn-off variant 1) (ssRNA)
RNA: GUCCUGGAUUAUCACAAGCACAUGAGGAUCACCCAUGUCAUGGGUGGAUCCCUAAAUGGGUAUUCUGCUCGUCUUAU
B26: Eterna 6444393 (Inverted Same State NG 3) (ssRNA)
RNA: UGUUUUGUACAUGAGGAUCACCCAUGUUAAUAUGUGGUAGUCAGAAGGCAUUGUUUGAGAUAUUAUGAGGAUAUGAUUAGUCUG
B27: Eterna 6122884 (Exclusion NG 3) (ssRNA)
RNA: CGAUAACAUAGUUAUCCGUAACGGACAUGAGGAUCACCCAUGUAGGAUAUGUUACUAAACUAGUAACAGAAGGACAUGAGUCUU
B28: Eterna 7727526 (Same State - Tryptophan A) (ssRNA)
RNA: GACGGGCAGUGAUGUUGCCGGUCUCUUGGACGAGGACCGGUACGGCCGCCACUCGAUCUGAUGCGAGAAUUGUAUCUUUUAAUAA
B29: Eterna 6124659 (Same State NG 3) (ssRNA)
RNA: GAAUAUUCGUUGAACAUGAGGAUCACCCAUGUAACUUGACAUGAGGAUAUGGAUUCUAAUUGGAUCCAGAAGGUAUGAAUAUUC
B30: Eterna 7708488 (Same State - Arginine A) (ssRNA)
RNA: UAUACGAAGCAGUGAUGUUGCUUAUGAGAAGGAGCGCACGAAAGUGCAGGUAGGUCGCUCAGCCAUGUGGACGAAAACGUCCACA
B31: Eterna 5987116 (Exclusion 5) (ssRNA)
RNA: UUAGGAUCAGGAUAUGAUGUUUUAAACAUGAGGAUCACCCAUGUAGAUCCUGAUUCAACAUCAGAAGGGAUAAUUU
B32: Eterna 7754737 (Exclusion - Tryptophan A) (ssRNA)
RNA: CGCUUUGCGUCCGGUAGUGAUGUUACCAAGCGAGGACCGGUACGGCCGCCACUCGAGUGACAGACGUACUGGUAUCACCCGCUUU
B33: Eterna 6056021 (Exclusion 3) (ssRNA)
RNA: GGGCCCGGAGGAUAUACAUGAGGAUCACCCAUGUAGGGCCCGGGUAUUCCCGGGUUUUGUAGAAGGCCGGGCCC
B34: Eterna 7728774 (Exclusion - Theophylline A) (ssRNA)
RNA: AUCACAGUGAUGUUGUGAUAUGAUUCAGAUACCAGACUAGUGCUAGUCCCUUGGCAGCUGAACUCAGCAGCACCACUAGCACUCU
B35: Eterna 7616965 (Same State - Arginine A) (ssRNA)
RNA: UACAUGAGGAUCACCCAUGUAUGUAUCGAAGGAGCGCGUGUAAACGCAGGUAGGUCGCGAACAUGAGGAUCACACAUGAGGAUCA
B36: Eterna 1109 (Exclusion - Theophylline A) (ssRNA)
RNA: UCGGCGGAGUGAUGUUCCUAUGUCCAAGAUACCAGUCUAUGAACGGACCCUUGGCAGCUUCCAUUAGGUUACUAUUUAGACUCAU
B37: Eterna 11304 (Exclusion 2) (ssRNA)
RNA: UCGGCGCGAGGAUAUACGGUUGCUUGGUAGGGUCGUGGCGUACAUGAGGAUCACCCAUGUAGAAGGCGCGCCGC
B38: Eterna 7697880 (Same State - Tryptophan B) (ssRNA)
RNA: AACAGCAAUGCGGCCGCCACUUCGAGGUCAGUGAUGUUGACAGAAUUAAAUAAAGAUCCCAAGAGGAGGACCGGGCAGUGCUGUU
B39: Eterna 15548 (Exclusion 2) (ssRNA)
RNA: GUGUAGAUAGGAUAUGCUUUGAGCUUAUGAGAGUAUGCUCGACAUGAGGAUCACCCAUGUAGAAGGGUUUACAC
B40: Eterna 1281 (Exclusion - Tryptophan B) (ssRNA)
RNA: GAGAAUCUCACGGCCGCCACUCACCUGUUAAUUGACAUCGACGGCCUCGACCAGUGAUGUUGUGUGAGGACCGGGUGUCUCGUGU
B41: Eterna 7678688 (Same State - Tryptophan A) (ssRNA)
RNA: AACACUCUGGGAGUGAUGUUCUCAAAUAACCGAGGACCGGUACGGCCGCCACUCGGAAAAGAGUGAGUCCUACGAAAAGUAGGAC
B42: Eterna 5860431 (Same State NG 1) (ssRNA)
RNA: UAAUGUUAGCGAGGAUAUCGUUUAUUGAAGUUACGAGAAGGCGCUCUUCUUACAUGAGGAUCACCCAUGUCUGUUUUGCAUGAU

Molecular target: MS2 coat protein, dlFG mutant (Escherichia phage MS2, UniProt P03612, del68-81insG)
Assay: 4 mM Mg2+; no ligand; RNA-MaP array; 100 mM Tris-HCl pH 7.5, 80 mM KCl, 4 mM MgCl2, 0.1 mg/mL BSA, 1 mM DTT, 0.01 mg/mL yeast tRNA, 0.01% Tween-20; protein 1.5 nM to 3 uM; 37 C (Table S3)
Settings: chain copies: 2; label: tethered by stalled RNA polymerase

Binder	Kd
B1	166 nM
B2	223 nM
B3	13.8 nM
B4	27.2 nM
B5	35.5 nM
B6	15.4 nM
B7	> 3000 nM
B8	35.5 nM
B9	> 3000 nM
B10	45.5 nM
B11	14.5 nM
B12	> 3000 nM
B13	> 3000 nM
B14	386 nM
B15	192 nM
B16	12.1 nM
B17	233 nM
B18	8.7 nM
B19	> 3000 nM
B20	44.2 nM
B21	133 nM

Binder	Kd
B22	> 3000 nM
B23	10.7 nM
B24	> 3000 nM
B25	481 nM
B26	60.6 nM
B27	37.2 nM
B28	> 3000 nM
B29	75.8 nM
B30	> 3000 nM
B31	15.1 nM
B32	> 3000 nM
B33	15 nM
B34	> 3000 nM
B35	24.5 nM
B36	> 3000 nM
B37	17.3 nM
B38	> 3000 nM
B39	88.3 nM
B40	> 3000 nM
B41	> 3000 nM
B42	68.7 nM
